Data published in US20170129962A1 (Hoffmann-La Roche, published 2017).

How the values were obtained:
TWEAK = biological target: T1, TWEAK (human, UniProt O43508 94-249, limits assumed); experiment: SPR (Biacore), TWEAK amine-coupled on C1 chip, bispecific antibody as analyte, 1:1 Langmuir
T1 construct: The method paragraph says only 'TWEAK'; also called human TWEAK; TNF-related weak inducer of apoptosis
T1 sequence (looked up): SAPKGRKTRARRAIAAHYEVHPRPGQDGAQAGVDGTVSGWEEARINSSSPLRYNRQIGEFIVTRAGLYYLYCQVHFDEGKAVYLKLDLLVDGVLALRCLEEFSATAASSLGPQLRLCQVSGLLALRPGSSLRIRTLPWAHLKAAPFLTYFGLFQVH
Description: Around 100 RU of TWEAK was immobilized on the C1 chip surface at pH 5.0 using an amine coupling kit supplied by the GE Healthcare. The sample and system buffer was PBS-T (10 mM phosphate buffered saline including 0.05% Tween 20) pH 7.4. Association was measured by injection the bispecific antibody in various concentrations in solution for 3 min at a flow of 30 μl/min starting with 50 nM in 1:1 serial dilutions. The dissociation phase was monitored for up to 10 min and triggered by switching from the sample solution to running buffer. The surface was regenerated three times by 30 sec wash with a 3 M MgCl2 solution at a flow rate of 30 μl/min. Bulk refractive index differences were corrected by subtracting the response obtained from a blank-coupled surface. Blank injections are also subtracted (=double referencing). For calculation of KD and other kinetic parameters, the Langmuir 1:1 model was used.
(§1) Binding of the multispecific antibodies to their respective target antigens, i.e. IL17 and TWEAK, was assessed by Biacore® as described in the general methods section.

human IL17 [1] = biological target: T2, human IL17 (human, UniProt Q16552 24-155); experiment: SPR (Biacore), bispecific antibody captured by anti-human F(ab')2, human IL17 as analyte, 1:1 Langmuir
T2 construct: for that reason an apparent KD is reported; also called IL17-A
T2 sequence (looked up): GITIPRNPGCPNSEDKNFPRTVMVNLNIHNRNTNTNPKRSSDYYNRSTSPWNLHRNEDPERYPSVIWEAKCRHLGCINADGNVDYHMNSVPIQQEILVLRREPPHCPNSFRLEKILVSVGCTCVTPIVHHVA
Description: (§2) Around 6000 resonance units (RU) of the capturing system (15 μg/ml goat anti human F(ab′)2; Order Code: 28958325; GE Healthcare Bio-Sciences AB, Schweden) were coupled on a CMS chip at pH 5.0 by using an amine coupling kit supplied by the GE Healthcare. The sample and system buffer was PBS-T (10 mM phosphate buffered saline including 0.05% Tween 20) pH 7.4. The bispecific antibody was captured by injecting a 50 nM solution for 90 sec at a flow of 10 μl/min. Association was measured by injection human IL17 in various concentrations in solution for 3 min at a flow of 30 μl/min starting with 50 nM in 1:1 serial dilutions. The dissociation phase was monitored for up to 10 min and triggered by switching from the sample solution to running buffer. The surface was regenerated twice by 60 sec wash with a 10 mM glycine pH 2.1 solution at a flow rate of 30 μl/min. Bulk refractive index differences were corrected by subtracting the response obtained from a goat anti human F(ab′)2 surface. Blank injections are also subtracted (=double referencing). For calculation of apparent KD and other kinetic parameters, the Langmuir 1:1 model was used.
as §1

human IL17 [2] = biological target: T2, human IL17; experiment: SPR (Biacore), bispecific antibody captured by anti-human F(ab')2, human IL17 as analyte, 1:1 Langmuir, apparent KD
Description: as §2, §1

B1: TweakIL17-0129 (bispecific antibody, human IgG4 S228P, kappa)
light 1: DIVMTQSPLSLPVTPGEPASISCRSSQSLVHSNGDTYFHWYLQKPGQSPQLLIYKVSNRFSGVPDRFSGSGSGTDFTLKISRVEAEDVGVYYCSQTTHAPFTFGQGTKLEIKRTVAAPSVFIFPPSDEKLKSGTASVVCLLNNFYPREAKVQWKVDNALQSGNSQESVTEQDSKDSTYSLSSTLTLSKADYEKHKVYACEVTHQGLSSPVTKSFNRGEC
heavy 1: EVQLVESGGGLVQPGGSLRLSCAASGFSLDSYGVHWVRQATGKGLEWVSVIWSDGTTTYNSALKSRFTISRENAKNSLYLQMNSLRAGDTAVYYCARDTHYRLYYYAMDYWGQGTTVTVSSASTKGPSVFPLAPCSRSTSESTAALGCLVEDYFPEPVTVSWNSGALTSGVHTFPAVLQSSGLYSLSSVVTVPSSSLGTKTYTCNVDHKPSNTKVDKRVESKYGPPCPPCPAPEFEGGPSVFLFPPKPKDTLMISRTPEVTCVVVDVSQEDPEVQFNWYVDGVEVHNAKTKPREEQFNSTYRVVSVLTVLHQDWLNGKEYKCKVSNKGLPSSIEKTISKAKGQPREPQVCTLPPSQEEMTKNQVSLSCAVKGFYPSDIAVEWESNGQPENNYKTTPPVLDSDGSFFLVSRLTVDKSRWQEGNVFSCSVMHEALHNHYTQKSLSLSLGK
light 2: DIQMTQSPSSVSASVGDRVTITCQASQNIYSNLAWYQQKPGKAPKLLIYTASYLASGVPSRFSGSGSGTDYTLTISSLQPEDFATYYCQTAYYNSRPDTVAFGGGTKVEIKSSASTKGPSVFPLAPCSRSTSESTAALGCLVKDYFPEPVTVSWNSGALTSGVHTFPAVLQSSGLYSLSSVVTVPSSSLGTKTYTCNVDHKPSNTKVDKRVESKYG
heavy 2: QVQLVQSGAEVKKPGSSVKVSCKASGFDFSTYYMSWVRQAPGQGLEWMGTVYVRQGTTYYASWLNGRVTITADESTSTAYMELSSLRSEDTAVYYCARGGYNYDDAFVIWGQGTLVTVSSASVAAPSVFIFPPSDEQLKSGTASVVCLLNNFYPREAKVQWKVDNALQSGNSQESVTEQDSKDSTYSLSSTLTLSKADYEKHKVYACEVTHQGLSSPVTKSFNRGECPPCPPCPAPEFEGGPSVFLFPPKPKDTLMISRTPEVTCVVVDVSQEDPEVQFNWYVDGVEVHNAKTKPREEQFNSTYRVVSVLTVLHQDWLNGKEYKCKVSNKGLPSSIEKTISKAKGQPREPQVYTLPPCQEEMTKNQVSLWCLVKGFYPSDIAVEWESNGQPENNYKTTPPVLDSDGSFFLYSRLTVDKSRWQEGNVFSCSVMHEALHNHYTQKSLSLSLGK
notes: CrossMAb CH1-CL, knob-into-hole with S354C/Y349C
Kd (TWEAK): < 0.1 nM
koff (TWEAK): 2.64e-05 s⁻¹
kon (TWEAK): 707000 M⁻¹ s⁻¹
koff (human IL17 [1]): 0.000204 s⁻¹
kon (human IL17 [1]): 1.09e+07 M⁻¹ s⁻¹
Kd (human IL17 [2]): < 0.1 nM
